Reference: patent US20220162322A1 (CAPELLA BIOSCIENCE, published 2022)

T1: human BDCA-2 (CLEC4C) expressed on transfected U937 cells (human, UniProt Q8WTT0 1-213)
T1 construct: also called cell expressed human BDCA-2; Q8WTT0
T1 sequence: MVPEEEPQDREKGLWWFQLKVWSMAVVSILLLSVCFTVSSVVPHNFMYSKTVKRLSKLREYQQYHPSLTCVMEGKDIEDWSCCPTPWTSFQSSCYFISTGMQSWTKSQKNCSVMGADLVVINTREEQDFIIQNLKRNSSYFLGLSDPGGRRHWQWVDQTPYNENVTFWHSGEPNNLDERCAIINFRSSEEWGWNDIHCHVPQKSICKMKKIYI

T2: cynomolgus BDCA-2 expressed on transfected U937 cells (cynomolgus, UniProt Q8WTT0 1-213 (human entry))
T2 construct: also called cell expressed cynomolgus BDCA-2
T2 chain: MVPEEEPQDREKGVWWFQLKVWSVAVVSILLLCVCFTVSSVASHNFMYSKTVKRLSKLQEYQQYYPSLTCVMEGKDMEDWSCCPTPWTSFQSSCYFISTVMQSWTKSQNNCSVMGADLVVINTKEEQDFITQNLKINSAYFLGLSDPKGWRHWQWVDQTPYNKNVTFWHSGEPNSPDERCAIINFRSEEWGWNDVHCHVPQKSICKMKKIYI

T3: BDCA-2 (CLEC4C, CD303) on human plasmacytoid dendritic cells (purified pDC or pDC within PBMC) (human, UniProt Q8WTT0 1-213)
T3 sequence: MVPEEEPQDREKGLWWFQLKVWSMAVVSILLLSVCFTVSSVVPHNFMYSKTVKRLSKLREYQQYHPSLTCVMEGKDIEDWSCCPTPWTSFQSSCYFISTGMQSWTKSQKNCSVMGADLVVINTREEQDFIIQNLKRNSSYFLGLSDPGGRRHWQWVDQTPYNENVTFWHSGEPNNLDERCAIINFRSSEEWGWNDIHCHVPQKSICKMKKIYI


Experiments:
[1] = biological target: T4, human BDCA-2-Fc (hIgG1-Fc-hBDCA-2) (human); test: ELISA on plate-coated human BDCA2-Fc
T4 construct: also called huBDCA2-Fc
T4 sequence (chain, as listed by the source limits assumed): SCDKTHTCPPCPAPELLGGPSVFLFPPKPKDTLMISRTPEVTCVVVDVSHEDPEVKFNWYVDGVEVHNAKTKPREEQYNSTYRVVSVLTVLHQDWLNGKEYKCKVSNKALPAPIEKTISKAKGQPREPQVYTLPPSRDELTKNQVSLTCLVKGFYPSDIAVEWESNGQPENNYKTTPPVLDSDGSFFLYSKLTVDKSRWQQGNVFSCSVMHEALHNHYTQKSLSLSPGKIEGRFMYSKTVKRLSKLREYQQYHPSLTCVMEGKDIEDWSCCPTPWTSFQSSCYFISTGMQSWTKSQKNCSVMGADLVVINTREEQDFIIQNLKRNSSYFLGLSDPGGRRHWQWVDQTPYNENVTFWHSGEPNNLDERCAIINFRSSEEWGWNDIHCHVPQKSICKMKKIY
Protocol: 100 ul per well of 0.5 μg/ml of human BDCA2-Fc in PBS pH 7.4 was incubated overnight at 4 C. The wells were then washed 3 times with PBST (PBS+0.05% Tween 20) and then blocked with 250 ul 4% Skimmed Milk (Marvel, cat. no. 3023033 Lot no. 7169) in PBS for 120 min at RT. The wells were washed and then incubated with 100 ul per well of humanized mAbs at 3 fold dilutions (from 1 μg/ml to 0.001 μg/ml) in 1% Skimmed Milk PBS buffer at pH 7.4. After 60 min at RT the wells were washed 3 times in PBST and 100 ul of mouse anti-human IgG (anti-CH1-HRP; 1:1000, BD Pharmigen cat. no. 555788) or donkey anti-mouse IgG (anti-mouse IgG-HRP) at 1:5000 dilution (Jackson ImmunoResearch, Cat. no. 715-035-150) in 1% Skimmed Milk PBS was added. Development was with TMB (ThermoFisher, cat. no. 00-4201-56), 100 ul/well and the reaction stopped with 100 μl/well H2SO4 (cat. nr. J/8430/15, lot nr.) and the absorbance read at 450 nm. The EC50 was calculated using Graphpad Prism software. A negative (1% Skimmed Milk/PBS) and positive control (anti-BDCA-2, AC144, Miltenyi Biotec, cat. no. 130-090-690) were utilised in the assay.

[2] = biological target: T1, human BDCA-2 (CLEC4C) expressed on …; test: flow cytometry (MFI titration) on cells expressing human BDCA-2
Protocol: (§1) Cells expressing human and cynomolgus BDCA-2 were resuspend at 2×10⁶ cells/mi in FACS buffer (2% FBS/PBS) and 50 μl of the cell suspension was added per well, in a 96-well V bottom plate. The plate was centrifuge and the supernatant discarded. 12 serial, 2-fold dilutions of mAbs, starting at 50 μg/ml (range 50-0.024 μg/ml), in FACS buffer were prepared and 25 μl of the mAb dilutions added to wells, in triplicate. The plate was then incubated for 60 min at room temperature then centrifuged and washed 3× with 150 μl FACS buffer. To each well was then added 25 μl goat-anti-human PE conjugate (or goat-anti-mouse in the case of AC144), diluted 1:200 in FACS buffer. The plates were incubated for 60 min at room temperature protected from light and centrifuged and washed 3× with 150 μl FACS buffer. 25 μl per well of 2% PFA 2% was added and incubated for 20 min at 4° C., protected from light and analysed on the iQue screener.
(§2) Serial dilutions of the 4 chimeric mAbs (50-0.25 ug/ml) were prepared and incubated with cells expressing human and cynomolgus BDCA-2. After staining, the median fluorescence intensity (MFI) of the cells was measured and the data points of the dilution series were fitted on a sigmoidal curve after normalization to determine the EC50 values.

[3] = biological target: T2, cynomolgus BDCA-2 expressed on …; test: flow cytometry (MFI titration) on cells expressing cynomolgus BDCA-2
Protocol: as §1, §2

[4] = biological target: T4, human BDCA-2-Fc (hIgG1-Fc-hBDCA-2); test: SPR (BIAcore T200), huBDCA2-Fc immobilised on CM5 chip, mAb injected
Protocol: A BIAcore T200 was used with BIAcore run buffer (HBS-EP) at pH7.4. 692RU of huBDCA2-Fc was immobilized to a CM5 chip (CFJB156) utilising 5 μg/ml of huBDCA2-Fc with the BIAcore EDC/NHS kit according to the manufacturer's instructions. Two-fold dilutions of the humanized mAbs were injected starting at 200 nM down to 3.1 nM with a contact time of 60 s at a flow of 30 or 60 ul/min at 25° C. followed by an off-rate wash for 5 minutes with BIAcore buffer. […] The BIAcore T200 software was used to calculate Ka (1/Ms), Kd (1/s) and the KD (nM).

[5] = biological target: the molecule itself; test: High-Mass MALDI mass spectrometry with chemical cross-linking
Protocol: For the characterization of BDCA2(CLEC4C)/3E5 (variant 12) complexes, the measurements were performed using an Autoflex II MALDI ToF ToF mass spectrometer (Bruker) equipped with a CovalX HM4 interaction module. The CovalX interaction module contains a detecting system designed to optimize detection up to 2 MDa with nano-molar sensitivity. […] In order to characterize CLEC4C we submitted the sample to trypsin, chymotrypsin, Asp-N, elastase and thermolysin proteolysis followed by nLC-LTQ-Orbitrap MS/MS analysis. For the characterization, a nLC Ultimate 3000-RSLC system in line with a LTQ-Orbitrap mass spectrometer (Thermo Scientific) was used. Sample preparation was as follows:
In order to determine the epitope of CLEC4C/3E5 complex with high resolution, the protein complexes were incubated with deuterated cross-linkers and subjected to multi-enzymatic cleavage. After enrichment of the crosslinked peptides, the samples were analyzed by high resolution mass spectrometry (nLC-LTQ-Orbitrap MS) and the data generated were analyzed using XQuest and Stavrox software.

[6] = biological target: T3, BDCA-2 (CLEC4C, CD303) on human …; test: cell-based or functional assay
[7] = biological target: T3, BDCA-2 (CLEC4C, CD303) on human …; test: cell-based or functional assay; remark: listed apart in the source
[8] = biological target: T4, human BDCA-2-Fc (hIgG1-Fc-hBDCA-2); test: SPR (BIAcore), comparison of KD

Binder	EC50 [1] [nM]	EC50 [2] [µg/mL]	EC50 [3] [µg/mL]	Kd [4] [nM]	IC50, ng/ml; inhibition of IFNα from ODN stimulated healthy donor PBMC [6] [ng/mL]	IC90, ng/ml; inhibition of IFNα from ODN stimulated healthy donor PBMC [6] [ng/mL]	IC50, nM; inhibition of IFNα from ODN stimulated healthy donor PBMC [7] [nM]	IC90, nM; inhibition of IFNα from ODN stimulated healthy donor PBMC [7] [nM]	fold higher affinity than parental wild type 3E05 and AC144 [8] [fold]	binding result [5]
CLEC4C (BDCA-2) protein used for cross-linking / mass spectrometry epitope mapping (receptor, also called BDCA2(CLEC4C)) NFMYSKTVKRLSKLREYQQYHPSLTCVMEGKDIEDWSCCPTPWTSFQSSCYFISTGMQSWTKSQKNCSVMGADLVVINTREEQDFIIQNLKRNSSYFLGLSDPGGRRHWQWVDQTPYNENVTFWHSGEPNNLDERCAIINFRSSEEWGWNDIHCHVPQKSICKMKKIYI	–	–	–	–	–	–	–	–	–	no binding
3E05_var6 (antibody, human IgG1, V domains shown, also called 3E05 VL2VH2 (var_6); 3E05VL2VH2 (var_6)) VH: QVQLVESGGGLVKPGGSLRLSCAASGFTFSSYTMSWVRQAPGKGLEWVSYISSGGGNTYYADSVKGRFTISRDNAKNSLYLQMNSLRAEDTAVYYCARHDYYDGGLYYAMDYWGQGTLVTVSS VL: DIVMTQSPDSLAVSLGERATINCKSSQSVDYDGDSSMNWYQQKPGQPPKLLISAASTLESGVPSRFSGSGSGTDFTLTISSLQAEDVATYYCQQTNEDPPTFGGGTKVEIK	0.29	–	–	< 0.01	12.3	110	0.08	0.73	> 100	–
3E05_var12 (antibody, human IgG1, V domains shown, also called 3E05 VL3VH4 (var_12); 3E05VL3VH4 (var_12)) VH: EVQLVESGGGLVKPGGSLRLSCAASGFTFSSYTMSWVRQAPGKGLEWVAYISSGGGQTYYPDSVKGRFTISRDNAKNSLYLQMNSLRAEDTAVYYCARHDYYEGGLYYAMDYWGQGTLVTVSS VL: DIVMTQSPDSLAVSLGERATINCKSSQSVDYDGDSSMNWYQQKPGQPPKLLIYAASTLESGVPSRFSGSGSGTDFTLTISSLQAEDVATYYCQQTNEDPPTFGGGTKVEIK	0.33	–	–	< 0.01	14.3	127	0.1	0.85	> 100	no binding
3E05_var14 (antibody, human IgG1, V domains shown, also called 3E05 VL4VH2 (var_14); 3E05VL4VH2 (var_14)) VH: QVQLVESGGGLVKPGGSLRLSCAASGFTFSSYTMSWVRQAPGKGLEWVSYISSGGGNTYYADSVKGRFTISRDNAKNSLYLQMNSLRAEDTAVYYCARHDYYDGGLYYAMDYWGQGTLVTVSS VL: DIVMTQSPDSLAVSLGERATINCKASQSVDYEGDSSMNWYQQKPGQPPKLLISAASTLESGVPSRFSGSGSGTDFTLTISSLQAEDVAVYYCQQTNEDPPTFGGGTKVEIK	0.32	–	–	< 0.01	19.3	173	0.13	1.15	> 100	–
3E05_var16 (antibody, human IgG1, V domains shown) VH: EVQLVESGGGLVKPGGSLRLSCAASGFTFSSYTMSWVRQAPGKGLEWVAYISSGGGQTYYPDSVKGRFTISRDNAKNSLYLQMNSLRAEDTAVYYCARHDYYEGGLYYAMDYWGQGTLVTVSS VL: DIVMTQSPDSLAVSLGERATINCKASQSVDYEGDSSMNWYQQKPGQPPKLLISAASTLESGVPSRFSGSGSGTDFTLTISSLQAEDVAVYYCQQTNEDPPTFGGGTKVEIK	0.25	–	–	< 0.01	–	–	–	–	> 100	–

Second part, led by results:

EC50 [1] [nM]	EC50 [2] [µg/mL]	EC50 [3] [µg/mL]	Kd [4] [nM]	IC50, ng/ml; inhibition of IFNα from ODN stimulated healthy donor PBMC [6] [ng/mL]	IC90, ng/ml; inhibition of IFNα from ODN stimulated healthy donor PBMC [6] [ng/mL]	IC50, nM; inhibition of IFNα from ODN stimulated healthy donor PBMC [7] [nM]	IC90, nM; inhibition of IFNα from ODN stimulated healthy donor PBMC [7] [nM]	fold higher affinity than parental wild type 3E05 and AC144 [8] [fold]	Binder	binding result [5]
0.3	1.76	2.6	0.35	–	–	–	–	–	chimeric mAb 3E05 (parental mouse 3E05 VH/VL on human IgG1) (antibody, V domains shown, also called 3E5; Parental 3E05) VH: EVKLVESGGGLVKPGGSLKLSCAASGFTFSSYTMSWVRQTPEKRLEWVAYISSGGGNTYYPDSVKGRFTISRDNARNTLYLQMSSLRSEDTAMYYCARHDYYDGGLYYAMDYWGQGTSVTVSS VL: DIVLTQSPASLAVSLGQRATISCKASQSVDYDGDSSMNWYQQKPGQPPKLLICAASTLESGIPARFSGSGSGTDFTLNIHPVEEEDAATYYCQQTNEDPPTFGGGTKLEIK	–
–	0.77	0.79	–	–	–	–	–	–	chimeric mAb 28B01 (antibody, human IgG1, V domains shown, also called 28B1; Parental 28B01) VH: EVKLVESGGGLVKPGGSLKLSCAASGFTFSYYTMSWVRQTPEKRLEWVAYISSGGDNAYYPDSVRGRFTISRDNARNTLYLQMSSLRSEDTAMYYCARHHYSNYFWYFDVWGAGTTVTVSS VL: DIVLTQSPASLAVSLGQRATISCKASQSVDYAGDSYVNWYQQKPGQPPKLLIYAASNLESGIPARFSGSGSGTDFTLNIHPVEEEDAATYYCQQSNEDPPTFGGGTKLEIK	–
–	0.57	1.35	–	–	–	–	–	–	chimeric mAb 25E06 (antibody, human IgG1, V domains shown, also called Parental 25E06) VH: EVKLVESGGGLVKPGGSLKLSCAASGFTFSSYTMSWVRQTPEKRLEWVAYISGVGGDTYYPDSVKGRFTISRDNARNTLYLQMSSLRSEDTAMFYCARHHYSHYFWYFDVWGAGTTVTVSS VL: DIVLTQSPASLAVSLGQRATISCKASQSVDYDGDGFMNWYQQKPGQPPKLLIYAASNLESGIPARFSGSGSGADFTLNIHPVEEEDAATYYCQQSNEDPPTFGGGTKLEIK	–
–	0.3	0.92	–	–	–	–	–	–	chimeric mAb 21E06 (antibody, human IgG1, V domains shown, also called Parental 21E06) VH: EVKLVESGGGLVKSGGSLKLSCEVSGFTFSSYTISWVRQTPEKRLEWVAYISSGGDNAYYPDSVKGRFTISRDNARNTLYLQMSSLRSEDTAMYYCARHLYYGDYFYVMDYWGQGTSVTVSS VL: DIVLTQSPASLAVSLGQRATISCKASQSVDYDGDNCLHWFQQKPGQPPKLLIYAASNLESGIPARFSGSGSGTDFTLNIHPVEEEDAATYYCQQSNEDPPTFGGGTKLEIK	–
